According to patent US20260193375A1 (NORMUNITY, published 2026):
Residue numbers refer to the chain shown, from its start.

B1: anti-LY6K antibody 3503 (antibody, V domains shown)
VH: EVQLVESGGGLVKPGGSLRLSCAASGFIFSSYSMNWVRQAPGKGLEWVSSISSSSSYIYYADSEKGRFTISRDNAKNSLYLQMNSLRAEDTAVYYCARQSTVVTSDYYYYYMDVWGKGTTVTVSS
VL: DIQMTQSPSSLSASVGDRVTITCRASQSISNYLNWYQQKPGKAPNLLIYAASSLQSGVPSRFSGSGSGTDFTLTISSLQPEDFATYYCQQSYSPPITFGQGTRLEIK
B2: anti-LY6K antibody 3082 (antibody, V domains shown)
VH: EVQLVESGGGLVKPGGSLRLSCAASGFTFSSSSMNWVRQAPGKGLEWVSSISRSSYYIYYADSVEGRFTISRDNAKNSLYLQMNSLRAEDTAVYYCAKIGSSSEGVEDYYYYYYMDVWGKGTTVTVSS
VL: B1 VL with S28N, S30N, N31S, N45K, Q89H, P94T, I96L, Q100G, R103K, L104V
B3: anti-LY6K antibody 3746 (antibody, V domains shown)
VH: B1 VH
VL: B1 VL
B4: anti-LY6K antibody 3724 (antibody, V domains shown)
VH: QLQLQESGPGLVKPSETLSLTCTVSGGSINSKSYYWDWIRQPPGKGLEWIGNIYYSGSTYYNPSLKSRVTISVDTSKNQFSLKLSSVTATDTAVYYCARHRGVTVTTYWYFDLWGRGTLVTVSS
VL: EIVLTQSPDFQSVTPKEKVTITCRASQSIGNSLHWYQQKSDQSPKLLIKYVSQSFSGVPSRFSGSGSGTDFTLTINSLEAEDAATYYCHQSSDFPHTFGQGTKLEIK
B5: anti-LY6K antibody 3704 (antibody, V domains shown)
VH: EVQLVESGGGLVQPGRSLRLSCAASGFTFDDYAMHWVRQAPGKGLEWVSGISWKIITIGYADSVKGRFTISRDNVKNSLYLQMNSLRAEDTALYYCAKDSRTGLDYWGQGTLVTVSS
VL: DIQMTQSPSSLSASVGDRVTITCRASQTISSYLNWYQQKPGKAPKLLIYAASSLQSGVPSRFSGSGSGTDFTLTISSLQPEDFATYYCQQTYTAPLTFGPGTKVDIK
B6: anti-LY6K antibody 3520 (antibody, V domains shown)
VH: QVQLVQSGSELKKPGASVKVSCKASGYTFTLYAMNWVRQAPGQGLEWMGWINTNTGNPTYAQGFTGRFVFSLDTSVSTAYLQISSLKAEDTAVYYCARTNWNSWGQGTMVTVSS
VL: DIQMTQSPSSLSASVGDRVTITCQASQDISNYLHWFQQKPGKAPKLLIYDASNLETGVPSRFSGSGSGTDFTFTIFSLQPEDIATYYCQHYDNLPLTFGGGTKVEIK
B7: anti-LY6K antibody 3047 (antibody, V domains shown)
VH: EVQLVESGGGLVQPGGSLRLSCAASGFTFSSYSMNWVRQAPGKGLEWVSGINWNGGSTGYADSVKGRFTISRDNAKNSLYLQMNSLRAEDTALYYCARGRLFDYWGQGTLVTVSS
VL: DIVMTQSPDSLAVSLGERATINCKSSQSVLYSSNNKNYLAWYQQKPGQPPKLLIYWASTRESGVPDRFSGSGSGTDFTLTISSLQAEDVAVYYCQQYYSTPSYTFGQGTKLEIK
B8: anti-LY6K antibody 3507 (antibody, V domains shown)
VH: EVQLVESGGGLVKPGGSLRLSCAASGFTFSSYSMNWVRQAPGKGLEWVSSISSSSDYIYYADSVKGRFTISRDDAKNSLYLQMNSLRAEDTAVYYCARGLEPNYYYYMDVWGKGTTVTVSS
VL: EIVMTQSPGTLSVSPGERATLSCRASQSVSSSYLAWYQQKPGQAPRLLIYGASTRATGIPARFSGSGSGTEFTLTISSLQSEDFAVYYCQQYNNWPLTFGGGTKVEIK
B9: anti-LY6K antibody 3522 (antibody, V domains shown)
VH: QVQLQQSGPGLVKPSQTLSLTCAISGDSVSSNSAAWNWIRQSPSRGLEWLGRTYYRSKWYNDYAVSVKSRITINPDTSKNQFSLQLNSVTPEDTAVYYCARECSGSYYRFDPWGQGTLVTVSS
VL: DIVMTQTPLSSPVTLGQPASISCRSSQSLVHSNGNTYLSWLQQRPGQPPRLLIYKISHRFSGVPDRFSGSGAGTDFTLKIRRVEAEDVGVYYCMQATQFPYTFGQGTKLEIK

Legend:
hLY6K-mFc = target: T1, hLY6K-mFc (human, UniProt Q17RY6 18-138); assay: SPR (Carterra LSA), mAb captured on anti-human IgG-Fc, antigen as analyte
T1 construct: not shown: mFc
T1 sequence: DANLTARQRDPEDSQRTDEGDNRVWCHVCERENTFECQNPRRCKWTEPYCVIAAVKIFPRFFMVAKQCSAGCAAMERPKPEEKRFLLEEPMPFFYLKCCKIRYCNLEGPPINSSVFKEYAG

hLY6K-his = target: T2, hLY6K-his (human, UniProt Q17RY6 18-138, limits assumed); assay: as above
T2 construct: not shown: his tag
T2 sequence: T1 sequence

cyLY6K-mFc = cyLY6K-mFc (cynomolgus monkey); assay: as above
Ly6D = target: T3, Ly6D; assay: ELISA, antigen coated on the plate, antibody as human IgG1, anti-human F(ab)2 HRPO
T3 chain: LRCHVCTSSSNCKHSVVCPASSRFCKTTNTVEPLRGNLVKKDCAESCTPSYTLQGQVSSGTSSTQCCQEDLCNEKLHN

Ly6H = target: T4, Ly6H; assay: as above
T4 chain: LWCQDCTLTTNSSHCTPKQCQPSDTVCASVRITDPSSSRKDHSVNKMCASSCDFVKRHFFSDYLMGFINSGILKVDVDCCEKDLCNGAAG

human LY6E (R&D Systems) [1] = target: T5, human LY6E (R&D Systems) (human, UniProt Q16553 21-101, limits assumed); assay: as above
T5 construct: also called hLY6E
T5 sequence (looked up): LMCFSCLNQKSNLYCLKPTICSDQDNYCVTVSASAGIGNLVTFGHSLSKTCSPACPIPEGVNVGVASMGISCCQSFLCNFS

[2] = target: T6, recombinant human LY6K (Wuxi) (human, UniProt Q17RY6 18-138); assay: capture ELISA (MSD): antibody coated as capture at 2 µg/mL, recombinant human LY6K titrated, sulfo-tagged polyclonal anti-hLY6K (AF6648) for detection; EC50 is the LY6K concentration
T6 construct: Limits of the construct not clearly stated; also called Human LY6K (Wuxi LY^KGLY138(1-38TR)_8His)
T6 sequence: T1 sequence

rat LY6K (R&D Systems) = target: T7, rat LY6K (R&D Systems) (rat); assay: ELISA, coated antigen, IgG1 at 10 ug/ml
T7 construct: also called rLY6K

Human LY6K (R&D Systems) = target: T8, Human LY6K (R&D Systems) (human, UniProt Q17RY6 18-138, limits assumed); assay: ELISA, coated antigen, IgG1 at 10 ug/ml
T8 construct: Bought from R&D Systems, coated on ELISA plates; also called hLY6K
T8 sequence: T1 sequence

[3] = target: T9, cynomolgus monkey LY6K (R&D Systems) (cynomolgus monkey); assay: ELISA, coated antigen, IgG1 at 10 ug/ml
T9 construct: also called cyLY6K

human LY6E (R&D Systems) [4] = target: T5, human LY6E (R&D Systems); assay: ELISA, coated antigen, IgG1 at 10 ug/ml
[5] = target: T6, recombinant human LY6K (Wuxi); assay: ELISA, LY6K coated at 2 ug/mL, HRP-labelled mAb titrated
[6] = target: T10, cell-surface anchored LY6K (human, UniProt Q17RY6 18-138); assay: flow cytometry on target cells, MFI fitted in Prism; flow cytometry, live target cells, 4 degrees C
T10 construct: the cell is named under assay; also called LY6K on target cells
T10 sequence: T1 sequence

rLY6K-mFc = target: T11, rLY6K-mFc (rat); assay: SPR (Carterra LSA), mAb captured on anti-human IgG-Fc, antigen as analyte
T11 chain: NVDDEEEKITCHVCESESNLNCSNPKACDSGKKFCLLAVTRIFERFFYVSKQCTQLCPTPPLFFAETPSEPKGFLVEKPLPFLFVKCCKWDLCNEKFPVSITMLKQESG

[7] = target: T10, cell-surface anchored LY6K; assay: IHC, paraffin sections of 293 cells overexpressing LY6K

Binder	Kd (hLY6K-mFc) [nM]	Kd (hLY6K-his) [nM]	Kd (cyLY6K-mFc) [nM]	binding result (Ly6D)	binding result (Ly6H)	binding result (human LY6E (R&D Systems) [1])	EC50 [2] [µg/mL]	% of maximum of commercial anti-LY6K mAb on human LY6K (rat LY6K (R&D Systems)) [%]	% of maximum of commercial anti-LY6K mAb on human LY6K (Human LY6K (R&D Systems)) [%]	% of maximum of commercial anti-LY6K mAb on human LY6K [3] [%]	% of maximum of commercial anti-LY6K mAb on human LY6K (human LY6E (R&D Systems) [4]) [%]	EC50 [5] [nM]	EC50 [6] [nM]	Kd (rLY6K-mFc) [nM]	binding result [7]	binding result (hLY6K-mFc)	binding result (hLY6K-his)
B1	0.0553	3.49	0.197	no binding (tested: 10 µg/ml)	no binding (tested: 10 µg/ml)	no binding (tested: 10 µg/ml)	0.064	0.7	66.6	76.4	2.9	2.67	0.576				
B2	0.0444	2.06	0.103	no binding (tested: 10 µg/ml)	no binding (tested: 10 µg/ml)	no binding (tested: 10 µg/ml)	0.0958	-0.5	87.2	95.2	2.1	4.59		240			
B3	0.0362	2.5	0.216					3.1	76.9	78.7	1.2	3.04	3.21				
B4								3.3	6.2	3.2	3.9				no binding (tested: 5 ug/ml)		
B5								0.6	2.2	2	3.2				no binding (tested: 5 ug/ml)		
B6	0.373	31.9	117	no binding (tested: 10 µg/ml)	no binding (tested: 10 µg/ml)	no binding (tested: 10 µg/ml)	0.536	0.7	61.2	13.6	2.8	2.34	3.61				
B7	2720		21600					1.5		3	1.7			129			
B8								-1.2	2.6	2.6	1.7				no binding (tested: 5 ug/ml)		
B9								0.7	2.1	2.6	4.3				no binding (tested: 5 ug/ml)	no binding (tested: up to 1.266-6 M as printed)	no binding (tested: up to 1.266-6 M as printed)
